Data from PMC9073318 (Plant Communications, 2022).

Columns and labels:
TaPAPhy_b2 [1] = target: T1, TaPAPhy_b2 (Triticum aestivum, UniProt F6MIW5); experiment: X-ray crystal structure of soaked crystal; format: binding; design: gene TRAES_3BF026700100CFD_c1; signal peptide (20 aa) and C-terminal 7-aa ER-retention signal removed; alpha-factor secretion signal, C-terminal 6xHis; Pichia pastoris KM71H (OCH1::G418R); 510 residues, Fe-Fe centre; glycosylated for assays, Endo F1 deglycosylated for crystals; details: 5 mM InsS6 soak, pH 5.5; deglycosylated enzyme; site adjacent to active centre (standby mode), phosphate at catalytic centre
T1 sequence (F6MIW5 21-530): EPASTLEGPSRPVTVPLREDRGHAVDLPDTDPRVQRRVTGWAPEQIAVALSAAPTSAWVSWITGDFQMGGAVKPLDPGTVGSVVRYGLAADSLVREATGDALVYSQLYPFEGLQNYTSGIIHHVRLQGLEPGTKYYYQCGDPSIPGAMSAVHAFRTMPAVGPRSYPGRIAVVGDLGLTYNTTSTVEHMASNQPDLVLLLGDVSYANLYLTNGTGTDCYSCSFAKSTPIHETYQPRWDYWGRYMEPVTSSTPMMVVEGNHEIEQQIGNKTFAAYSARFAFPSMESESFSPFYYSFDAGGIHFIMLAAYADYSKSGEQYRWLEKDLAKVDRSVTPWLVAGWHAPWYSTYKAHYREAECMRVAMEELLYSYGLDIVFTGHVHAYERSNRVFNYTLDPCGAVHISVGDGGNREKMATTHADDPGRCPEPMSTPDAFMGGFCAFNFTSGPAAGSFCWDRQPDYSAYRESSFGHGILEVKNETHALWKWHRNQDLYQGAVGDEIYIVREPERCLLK

TaPAPhy_b2 [2] = target: T1, TaPAPhy_b2; design: gene TRAES_3BF026700100CFD_c1; details: deglycosylated enzyme; product-bound state 1.42 A; bound to both irons (second structure, substrate-bound state, 1.54 A: 6GIZ)
purified protein = substrate: O=P(O)(O)O[C@H]1[C@H](OP(=O)(O)O)[C@@H](OP(=O)(O)O)[C@H](OP(=O)(O)O)[C@@H](OP(=O)(O)O)[C@H]1OP(=O)(O)O; experiment: purified protein; details: 0.2 M acetate pH 5.5, glycosylated enzyme

Molecule: O=S(=O)(O)O[C@H]1[C@H](OS(=O)(=O)O)[C@@H](OS(=O)(=O)O)[C@H](OS(=O)(=O)O)[C@@H](OS(=O)(=O)O)[C@H]1OS(=O)(=O)O [InsS6, myo-inositol hexakissulfate]
- X-ray crystal structure of soaked crystal (TaPAPhy_b2 [1]): it binds at a site immediately adjacent to the active center

Molecule: O=P(O)(O)O [phosphate]
- X-ray crystal structure (TaPAPhy_b2 [2]): A phosphate ion is bound to the two metal ions

B1: TaPAPhy_b2 (Triticum aestivum) (protein)
chain: EPASTLEGPSRPVTVPLREDRGHAVDLPDTDPRVQRRVTGWAPEQIAVALSAAPTSAWVSWITGDFQMGGAVKPLDPGTVGSVVRYGLAADSLVREATGDALVYSQLYPFEGLQNYTSGIIHHVRLQGLEPGTKYYYQCGDPSIPGAMSAVHAFRTMPAVGPRSYPGRIAVVGDLGLTYNTTSTVEHMASNQPDLVLLLGDVSYANLYLTNGTGTDCYSCSFAKSTPIHETYQPRWDYWGRYMEPVTSSTPMMVVEGNHEIEQQIGNKTFAAYSARFAFPSMESESFSPFYYSFDAGGIHFIMLAAYADYSKSGEQYRWLEKDLAKVDRSVTPWLVAGWHAPWYSTYKAHYREAECMRVAMEELLYSYGLDIVFTGHVHAYERSNRVFNYTLDPCGAVHISVGDGGNREKMATTHADDPGRCPEPMSTPDAFMGGFCAFNFTSGPAAGSFCWDRQPDYSAYRESSFGHGILEVKNETHALWKWHRNQDLYQGAVGDEIYIVREPERCLLK
- Km (purified protein): 76.4 ± 7.7 µM
- kcat (purified protein): 23.8 ± 0.9 s⁻¹

B2: TaPAPhy_b2 (Triticum aestivum; K368A) (protein)
chain: EPASTLEGPSRPVTVPLREDRGHAVDLPDTDPRVQRRVTGWAPEQIAVALSAAPTSAWVSWITGDFQMGGAVKPLDPGTVGSVVRYGLAADSLVREATGDALVYSQLYPFEGLQNYTSGIIHHVRLQGLEPGTKYYYQCGDPSIPGAMSAVHAFRTMPAVGPRSYPGRIAVVGDLGLTYNTTSTVEHMASNQPDLVLLLGDVSYANLYLTNGTGTDCYSCSFAKSTPIHETYQPRWDYWGRYMEPVTSSTPMMVVEGNHEIEQQIGNKTFAAYSARFAFPSMESESFSPFYYSFDAGGIHFIMLAAYADYSKSGEQYRWLEKDLAKVDRSVTPWLVAGWHAPWYSTYAAHYREAECMRVAMEELLYSYGLDIVFTGHVHAYERSNRVFNYTLDPCGAVHISVGDGGNREKMATTHADDPGRCPEPMSTPDAFMGGFCAFNFTSGPAAGSFCWDRQPDYSAYRESSFGHGILEVKNETHALWKWHRNQDLYQGAVGDEIYIVREPERCLLK
- Km (purified protein): 214.6 ± 46.6 µM
- kcat (purified protein): 28.4 ± 3.0 s⁻¹

B3: TaPAPhy_b2 (Triticum aestivum; K430A) (protein)
chain: EPASTLEGPSRPVTVPLREDRGHAVDLPDTDPRVQRRVTGWAPEQIAVALSAAPTSAWVSWITGDFQMGGAVKPLDPGTVGSVVRYGLAADSLVREATGDALVYSQLYPFEGLQNYTSGIIHHVRLQGLEPGTKYYYQCGDPSIPGAMSAVHAFRTMPAVGPRSYPGRIAVVGDLGLTYNTTSTVEHMASNQPDLVLLLGDVSYANLYLTNGTGTDCYSCSFAKSTPIHETYQPRWDYWGRYMEPVTSSTPMMVVEGNHEIEQQIGNKTFAAYSARFAFPSMESESFSPFYYSFDAGGIHFIMLAAYADYSKSGEQYRWLEKDLAKVDRSVTPWLVAGWHAPWYSTYKAHYREAECMRVAMEELLYSYGLDIVFTGHVHAYERSNRVFNYTLDPCGAVHISVGDGGNREAMATTHADDPGRCPEPMSTPDAFMGGFCAFNFTSGPAAGSFCWDRQPDYSAYRESSFGHGILEVKNETHALWKWHRNQDLYQGAVGDEIYIVREPERCLLK
- Km (purified protein): 307.6 ± 56.7 µM
- kcat (purified protein): 3.1 ± 0.3 s⁻¹
